Results: patent US20260042834A1 (HBM ALPHA THERAPEUTICS, published 2026)
Where a chain is given by its changes, count along the chain named. “And” between values parts separate entries of the source, which are not always exact repeats. Identical values can stand only once. Each block holds one binder with its values, some of them ahead of it.

Tests used:
[1] = target: T1, corticotropin-releasing hormone (CRH) peptide (human and mouse (same sequence), not fully specified); experiment: cell-based or functional assay
T1 peptide: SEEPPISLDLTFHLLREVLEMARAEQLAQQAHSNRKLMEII

[2] = target: T2, corticotropin-releasing hormone (CRH) peptide (human and mouse, not fully specified); experiment: cell-based or functional assay
T2 peptide: T1 peptide

CRH (CT Biotin) = target: T3, CRH (CT Biotin) (human and mouse, C-terminal K-Biotin); experiment: ELISA, biotin peptide on streptavidin plate
T3 construct: also called Peptide 4 (CRH-Biotin)
T3 peptide: T1 peptide
Experimental: (§1) Streptavidin (Thermo, Cat: 21125) was diluted in PBS to a concentration of 2 μg/ml. 100 μl of diluted streptavidin was added per well to ELISA microplates, and the plates were incubated overnight at 4° C. […] 100 μL of 3,3′,5,5′-tetramethylbenzidine (TMB) substrate (Biopanda, Cat: TMB-S-003) was added, and the plates were incubated at room temperature for 15 minutes. 100 μL of ELISA stopping solution (Solarbio, Cat #: C1058) was added to terminate the reaction, and the optical density at 450 nm (OD450 nm) was determined by an ELISA plate reader (Molecular Devices, Spectra max 384 plus).

hUCN1 (CT Biotin) = target: T4, hUCN1 (CT Biotin) (human, UniProt P55089 83-122, biotin at the C-terminus); experiment: ELISA, biotin peptide on streptavidin plate
T4 construct: also called human UCN1 (CT biotin)
T4 peptide (looked up): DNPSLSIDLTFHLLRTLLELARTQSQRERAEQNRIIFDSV
Experimental: as §1

CRH (NT Biotin) = target: T5, CRH (NT Biotin) (human and mouse, not fully specified; biotin at the N-terminus); experiment: ELISA, biotin peptide on streptavidin plate
T5 peptide: T1 peptide
Experimental: as §1

hUCN1 (NT Biotin) = target: T6, hUCN1 (NT Biotin) (human, UniProt P55089 83-122, biotin at the N-terminus); experiment: ELISA, biotin peptide on streptavidin plate
T6 construct: also called human UCN1 (NT biotin)
T6 peptide (looked up): T4 peptide (looked up)
Experimental: as §1

human UCN3 peptide [3] = target: T7, human UCN3 peptide (human, UniProt Q969E3 120-157, not fully specified; biotin at N- or C-terminus in the ELISA); experiment: ELISA on streptavidin-captured hUCN3 (NT biotin) and hUCN3 (CT biotin), mAb at 100 nM and 10 nM, OD450
T7 construct: also called hUCN3; hUCN3 (NT Biotin)
T7 peptide (looked up): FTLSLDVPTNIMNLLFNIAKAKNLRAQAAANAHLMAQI
Experimental: (§2) Streptavidin (Thermo, Cat: 21125) was diluted in PBS with a concentration of 2 μg/mL. 100 μL of diluted streptavidin was added per well to ELISA microplates, and the plates were incubated overnight at 4° C. Plates were blocked with ELISA blocking solution (containing 2% w/v BSA, 0.05% (v/v) Tween-20, pH 7.4 PBS buffer) at 37° C. for 1 hour, and then incubated with either 1 μg/mL hUCN1 (NT Biotin), hUCN1 (CT Biotin), hUCN2 (NT Biotin), hUCN2 (CT Biotin), hUCN3 (NT Biotin), or hUCN3 (CT Biotin) for 1 hour at 37° C. […] 100 μl of TMB Substrate (Biopanda, Cat: TMB-S-003) was added, and the plates were incubated at room temperature for 15 minutes. 100 μL of ELISA stopping solution (Solarbio, Cat #: C1058) was then added to terminate the reaction, and the OD450 nm was determined by an ELISA plate reader (Molecular Devices, Spectra max 384 plus).

human UCN1 peptide = target: T8, human UCN1 peptide (human, UniProt P55089 83-122); experiment: cell-based or functional assay
T8 peptide (looked up): T4 peptide (looked up)

biotinylated CRH = target: T9, biotinylated CRH (human and mouse, not fully specified; biotinylated, position not stated); experiment: Octet BLI, biotinylated CRH on SA sensor
T9 construct: also called Biotin-CRH; biotin-labeled CRH
T9 peptide: T1 peptide

human UCN2 peptide [4] = target: T10, human UCN2 peptide (human, UniProt Q96RP3 72-109, limits assumed, not fully specified; biotin at N- or C-terminus in the ELISA); experiment: ELISA on streptavidin-captured hUCN2 (NT biotin) and hUCN2 (CT biotin), mAb at 100 nM and 10 nM, OD450
T10 construct: also called hUCN2; hUCN2 (NT Biotin)
T10 peptide (looked up): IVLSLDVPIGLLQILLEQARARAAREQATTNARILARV
Experimental: as §2

human UCN2 peptide [5] = target: T10, human UCN2 peptide; experiment: ELISA, biotinylated hUCN2 on streptavidin plates
Experimental: as §2

human UCN3 peptide [6] = target: T7, human UCN3 peptide; experiment: ELISA, biotinylated hUCN3 on streptavidin plates
Experimental: as §2

hCRHR1 Luciferase Reporter Assay IC50 [1]: 10 nM
mCrhr1 Luciferase Reporter Assay IC50 [1]: 46.4 nM
B4: PR006746 (antibody, human IgG1, kappa, V domains shown)
VH: EVQLVESGGGLVQPGGSLRLSCAASGFTFSDNWMSWVRQAPGKGLEWVANIKQDSSENYYVDSVKGRFTISRDNAKNSLYLQMNSLRAEDTAVYYCSRGLALWGWGQGTLVTVSS
VL: DIVMTHSPLSLPVTPGDPASISCRSSQSLLHSTGYNYLDWYLQKPGQSPQLLIYLGSNRASGVPDRFSGSGSGTDFTLKFIRVEAEDVGVYYCMQALQTPYTFGQGTKLEIKR

binding result (human UCN3 peptide [3]): no binding (tested: 100 nM)
CHO-CRE-hCRHR1 0.5 nM CRH IC50 [2]: 2.77 nM
CHO-CRE-hCRHR1 1 nM hUCH1 IC50 (human UCN1 peptide): 42.5 nM
EC50 (hUCN1 (CT Biotin)): 0.022 nM
EC50 (CRH (NT Biotin)): 0.028 nM
EC50 (hUCN1 (NT Biotin)): 0.018 nM
Kd (biotinylated CRH): 0.0136 nM
binding result (human UCN2 peptide [4]): no binding (tested: 100 nM)
B5: PR303394 (antibody, human IgG1, kappa, V domains shown)
VH: EVQLQQSGPELVKPGVSMKISCKASGYSFTDSTMNWVKQSHGKNLEWIGLIHPDNGGTIYNQKFKGKATLTVHKSSSTAYMELLSLTSEDSAVYYCANGFAYWGQGTLVTVSA
VL: DVVMTQTPLSLPVSLGDQASISCRSSQSLLHSNGNTYLHWYLQKPGQSPELLIYKVSNRFSGVPDRFSGSGSGTDFTLKISRVEAEDLGVYFCSQSTHVPLTFGAGTKLELKR
notes: also called analog of CTRND05

binding result (human UCN2 peptide [5]): no binding (tested: 100 nM)
binding result (human UCN3 peptide [6]): no binding (tested: 100 nM)
B6: PR303394 (antibody, human IgG1, kappa, V domains shown)
VH: B5 VH
VL: B5 VL
notes: also called analog of CTRND05

The next lines start with the binder.

B1: PR006669 (antibody, human IgG1, kappa, V domains shown)
VH: B4 VH with S55G
VL: B4 VL
hCRHR1 Luciferase Reporter Assay IC50 [1]: 7.38 nM
mCrhr1 Luciferase Reporter Assay IC50 [1]: 28.9 nM

B2: PR006745 (antibody, human IgG1, kappa, V domains shown)
VH: B4 VH with S55A
VL: B4 VL
hCRHR1 Luciferase Reporter Assay IC50 [1]: 13.2 nM
mCrhr1 Luciferase Reporter Assay IC50 [1]: 76.2 nM

B3: PR004290 (antibody, human IgG1, kappa, V domains shown)
VH: EVQLVESGGVLVQPGGSLRLSCAASGFTFSSYWMTWVRQAPGKGLEWVANIKQDGSEKYYVDSVKGRFTISRDNAKNSLFLQMNSLRAEDTAVYYCARTLIFDYWGQGTLVTVSS
VL: B4 VL with H6Q, D17E, Y37S, D39E, F80I, I81S, V90I, A96T, Y101I, K108R
notes: Series 1; human IgG1 wildtype Fc; also called Hybridoma Clone 28b3
CHO-CRE-hCRHR1 0.5 nM CRH IC50 [2]: 5.41 nM and 3.49 nM
EC50 (CRH (CT Biotin)): 0.065 nM
EC50 (hUCN1 (CT Biotin)): > 1 nM
EC50 (CRH (NT Biotin)): 0.05 nM
EC50 (hUCN1 (NT Biotin)): 1.59 nM
